# B1: cholesterol oxidase from Chromobacterium sp. DS1 (ChO) (Chromobacterium sp. DS-1) (protein)
# chain: GRLTCSQPNNFPAEIPLYKQSFKNWAGDIKVDDVWTCAPRSADEVVKVANWAKDNGYKVRARGMMHNWSPLTLAAGVSCPAVVLLDTTRYLTAMSIDASGPVAKVTAQAGITMEALLTGLEKAGLGVTAAPAPGDLTLGGVLAINGHGTAIPAKGERRLAGASYGSISNLVLSLTAVVYDKASGAYALRKFARNDPQIAPLLAHVGRSLIVEATLQAAPNQRLRCQSWFNIPYGEMFAAAGSGGRTFASYLDSAGRVEAIWFPFTSNPWLKVWTVTPNKPLFSRQTDKPFNYPFSDNLPDEVTDLANKILSLGDGKLTPAFGKAQFAAASAGLVATASWDLWGWSKNLLLYVKPTTLRVTANGYAVLTRRENVQRVLNEFVTFYQARVQAYQQQGRYPMNGPVEIRVTGLDDPSEAALSGGVAPALSAIRPRPDHPEWNVAVWLDILTLPGTPYANQFYREIEQWIEANFNGSYAAVRPEWSKGWGYTDQAAWADSAMLQTTIPNAFRAGQPAAANWDAAKAALAAYDPYRLFSSPLLDSLGL
# notes: synthetic gene in pET24b(+) NdeI-BamHI; 6xHis tag (N-terminal), no tag removal told; E. coli Rosetta-gami2(DE3); native enzyme 58 kDa
# Substrate: CC(C)CCC[C@@H](C)[C@H]1CC[C@H]2[C@@H]3CC=C4C[C@@H](O)CC[C@]4(C)[C@H]3CC[C@]12C
# Experiment: purified protein
# Format: biochemical, Chromobacterium sp. DS-1
# Conditions: 0.1 M potassium phosphate pH 7, 25°C, cholesterol 0-1 mM
protein,measurement,value
B1,Km,31 µM

# Reference: paper PMC6373949, “Expression optimization, purification, and functional characterization of cholesterol oxidase from Chromobacterium sp. DS1” (PLoS ONE, 2019)
